Data from the nanobody polyreactivity screen of Harvey et al. (2022).

Assay: yeast display, Sf9 membrane polyspecificity reagent, FACS + sequencing; frameworks hold sequencing errors
Outline: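 Galactose-induced (36–48 hours) yeast carrying a synthetic nanobody display library were exposed to 10% biotinylated, detergent-solubilized Sf9 membrane reagent at 4 °C for 1 hour. FACS followed streptavidin microbead enrichment, using low and high (top ~1%) gates for expression (anti-HA) and reagent binding (streptavidin). Colony PCR, MiSeq 2 × 250 sequencing and CDR-length filtering followed. Labels for polyreactivity reflect the gate of origin.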

Row | Sequence | polyreactivity (PSR sort gate)
1 | QVQLVESGGCLVQAGGSLRLSCAASGRTFSSNALGWYRHAPGKERELVAAITTTGGRTYYADSVKGRFTISRDNAKNTVYLQMNSLKPEDTAVYYCAARRRYGYDFWGHGTQVTVSS | high polyreactivity
2 | QVQLVESGGGLVQAGGSLRLSCAASGNIFRGYTMGWSRQAPGKEREWVATISWNGVSTFYADSVKGRFTISRDNAKNTVYVQMNSLKPEDTAVYYCAAYYPSHDYSGFWSDTYEYWGQGTQVTVSS | low polyreactivity
3 | QVQLVESGGGLVQAGGSLRLSCAASGRTLSYYAMGWYRQAPGKEREFVAAINWSGGSTYYADSVKGRFTISRDNAKNTVYLQMISLKPEDTAVYYCAAYRPYSSSEGDYWGQGTQVTVSS | high polyreactivity
4 | QVQLVESGGGLVQAGGSLRLSCAASGRIFFYYAMGWYRQAPGKERELVATITASGDSTYYADSVKGRFTISRDNAKNTVYLQMNSLKPEDTAVYYCAADDGDYYEVDYWGQGTQVTVSS | low polyreactivity
5 | QVQLVESGGGLVQAGGILRLSCAASGRTFKYYAMGWYRQAPGKERELVATITWSGTSTNFADSVKGRFTISRDNAKNTVYLQMNSLKPEDTAVYYCAARSKRRNYDYWGQGTQVTVSS | high polyreactivity
6 | QVQLVESGGGLDQAGGSLRLSCAASGFIFGVSVMGWYRPAPGKERELVAAMSGRGGSTFYADSVKGRFTISRDNAKNTVYLQMNSLKPEDTAVYYCAAKSTGPSMDYWGQGTQVTVSS | high polyreactivity
7 | QVQVVESGGGLVKAGGSLRISCAASGRSFGANVMGWYRQAPGKEREFVAAISSSGGSTYYADSVKGRFTISRDNAKNTVYLQMNSVKPEDTAVYYCAAGGWPYSGGWFFQPNYDYWGQGTQVTVSS | low polyreactivity
8 | QVQLVESGGGLVQAGGSLRLSCAASGRTFRAYSMGWYRQAPGKERELVAASSRSGGRTYYADSVKGRFTISRDNAKITVFFQINSLKPEDTAVYYCAAETKYNTHDYYYWGQATQVTVSS | high polyreactivity
9 | QVQLVESGGGLVQAGGSLRLSCAASGRIFPLYTMGWYRQAPGKERELVAAISVSGGRTSYADSVKGRFTISRDNAKNTVYLQMNSLKPEDTAVYSCAARYYVTSYFSSMYYWGQGTQVTVSS | high polyreactivity
10 | QVQLVESGGGLVQAGGSLRLSCAASGSSFSSYAMGWYRQAPGKERELVASISRRGGSTYYADSVKGRFTISRDNAKNTGYLQMNSLNPEDTAVYYCNAPYAGMGYWGQGTQVTVSS | low polyreactivity
11 | QVQLLESGGGLVQAGGSLRLSCDASGFTFVAYAMGWYRQAPGKERELVAVISRGGSTYYADSVKGRFTISRDNAKNTVYLQMNSLKPEDTAVYYCAATFIHSYGKFFYWGQGTQVTLSS | low polyreactivity
12 | QVQLVESGGGLVQAGGSLRLSCAASGSILSYYAMGWYRQAPGKERELVAAISKTGGSTYYADSVKGRFTISRDNANNTVYLHMNSLKPEVTAVYYCAAVDNIGRYEYWGQGTQVTVSS | high polyreactivity
13 | QVQLVESGGGLVQAGGSIRLSCAASGRILYYYVMGWYRQAPGKERELVAAITRGGSTDYADSVKGRFTISRDNAKNTVYLQMNSLKPEDTAVFYCAVPSWPFWVRVEGDYWGQGTQVSVSS | low polyreactivity
14 | QVQLVESGGGLVQAGGSLRLSCAASGSIFGDYVMGWYRQAPGKERELVAAITFGGGRTYYADSVKGRFTISRDNAKNTVYLQMNSLKPEDTAVYYCAVSRKGLGSVEYWGQGTQVTVSS | low polyreactivity
15 | QVQLVESGGGLVQAGGSLLLSCAASGFTFWNYAMGWYRQAPGKEMEFVASITWSGGSTYYADSVKGRFTISSDNAKNTVYLQMNSLKPEDTAVYYCAVGGSGYGLYGVGYALDYWGQGTQVTVSS | high polyreactivity
16 | QVQLVESGGGLFQAGGSLRLSCAASGSTFGWNAMGWYRHAPGKERELVAAINKSGGRTYYADSVKGRFTISRDNAKNTVYLQMISLKPEDTAVYYCAAVTPIRVTSPDYDYWGQGTQVTVSS | low polyreactivity
17 | QVQLVESGGGLVQAGGSLRLSCAASGSIFYYYAMGWYRQAPGKERELVATISSGGGSTYYADSVKGRFTISRDNAKNTVYLQMNSLKPEDTAVYYCAKRRWRSYYDSWGQGTQVTVSS | low polyreactivity
18 | QVQLVESGGGLVQAGGSLRLSCAASGSIFSYYAMGWYRQAPGKERELVAAISGDSGRTYYADSVKGRFTISRDNAKNTVYLQMNSLKPEDTAVYYCNARVAYRYRTGYDYWGQGTQVTVSS | high polyreactivity
19 | QVHLVESGGGLVQAGGSLRLSCAASGSTFTYYAMGWYRQAPGKERELVAAISRRGGSTYYADSVKGRFTISRDNAKNTVYLQMNSLKPEDTAVYYCNVVIYSYGCNGRYDFWGQGTQVTVSS | high polyreactivity
20 | QVQLVESGGGLVQAGGSLRLSCAASGIIFRRYAMGWYRQAPGKERELVAAIRTSGGNTYYADSVKGRFTISRDNAKNTVYLQMNSLKPEDTAVYYCAARRHYTYGNGPSRGGQMDYWGQGTQVTVSS | high polyreactivity
21 | QVQLVESGGGLVQAGGSLRLSCAASGSIIPVYAMGWDRQAPGKVRQLVAAISSRGGRTYYADSVKGRFKISRDNAKNTVYLQMNSLKPEDTAVYYCASVYATYYRLPSQYDYWGQGTQVTVSS | low polyreactivity
22 | QVQHVESGGGLVQAGGSLRLSCAASGSIFGVYDMGWYRQAPGKERELVAAISWRGGSTYYADSVKGRFTISRDNAKNTVYLQMNSVKPEDTAVYYCNALGVAEYDWGQGTQVTVSS | low polyreactivity

Row | Sequence | polyreactivity (PSR sort gate)
23 | QVQLVESGGGLVQAGGSLRLSCAASGFTLTRKAMGWYRQAPGKERELVAAISRSGGSTYYADSVKGRFTISRDNAKNTVYLQMNSLKPEDTAVYYCNAGYGYGYPKYDYWGQGTQVTVSS | high polyreactivity
24 | QVQLVESGGGLVQAGGSLRLSCAASGNTFAGNAMGWYRLAPGKERELVAAISYSGGSTYYADSVKGRFTISRDNAKNNVYLQMNSLKPEDTAVYYCNAPQPGNGRTRSRYYYWGQGTQVTVSS | high polyreactivity
25 | QVQLVESGGGLVQAGGSLRLSCAASGSICAFYGMRWYRQAPGKERELVAAITRSGGSTYYADSVKGRFTISRDNAKNTVYLQMNSLKAEDTAVSYCAKRPHHGSTKYNYWGQGTQVTVSS | low polyreactivity
26 | QVHLVESGGGLVQAGGSLRLSFAASGLIFSAYAMAWYRQAPGKERELVAAISSSGGRTYYADSVKGRFTISRDNAKNTVYLQMNSLKPEDTAVYYGNAASKNSGRYAYQNYDYWGQGTQVTVSS | high polyreactivity
27 | QVQLVESGGGLVQAGGSLRLSCAASGFTFGYNAMGWYRQAPGKEREMVAAINYGGSTDYADSVKGRFTISRDYAKNTVYLQMNSLKPEDTAVYYCNIADRYAYWVRGRHRYGYWGQGTQVTVSS | low polyreactivity
28 | QVQLVESGGGLVQAGGSLRLSCAASGRTFKFYAMGWYRQAPGKERELVARITSNSGSTYYADSVKGRFTISRDTAKNTVYLQMTSLKPEDTAVYYCAVRGTLGSYWYTYYYWGQGTQVTVSS | high polyreactivity
29 | QVQLVESGGGLVQAGGSLRLSCAASGRTFRYYAMGWYRQTPGKERELVATISKSGGSTYYADSVKGRFTISRDNAKNTVYLQMNSLKPEDTAVYYCATSKSYSAFDYWGQGTQVTVSS | high polyreactivity
30 | QVQLVESGGGLVPAGGSLRLSCAASGFTFEYYVIGWYRHAPGKERELVAAISSRGGSTYYADSVKGRFTISRDNAKNTVYLQMNSLKPDDTAVYYGATRDPYPRRREFEYWGQGTQVTVSS | low polyreactivity
31 | QVQIVESGGGLVQAGGSRRLSCAASGIIFYVNVMGWYRQAPGKERELVASNDGSGDTTYYADSVKGRFTISRDNAKNTVYLQMNSLKPEDTAVYYCAADKYSFWSYYPDDDYIYDYWGQGNQVTVSS | low polyreactivity
32 | QVQLVESGGGLVQAGGSLRLSCAASGRNFRTNAMGWYRQAPGKERELVAAITWRGGNTYYADSVKGRFTISRDNAKNTVYLQMNSLKPEDTAVYYCATAYRYYPSPYDYWGQGTQVSVSS | high polyreactivity
33 | QVQLVESGGGIVQAGGSLRLSCAASGRIFTRNAMGWYRQAPGKERELVAAISYSGGTTYYADSVKGRFTISRDNAKNTVYLQMNSLKPEDTAVYYCAALRPTQRYFTYDYWGQGTQVTVSS | high polyreactivity
34 | QVQLVESGGGIVQAGGSLRLSCPASGRIFGPNAMGGYRQAPGKERELVAVISRRGTSTYYADSVKGRFTISRDNAKNTVYLQMNRLKPEDTAVYYCAAGGHYLYDYWGQGTQVTVSS | high polyreactivity
35 | QVQLVESGGGLVQAGGSLRLSCAASGITFPYNAMGWYRQAPGKERELVADISSSGGITYYADSVKGRFTISRDNAKNTVYLQMNSLKPEDTAVYYCAVRKYGYGFEMDYWGQGTQVTVSS | low polyreactivity
36 | QVQLVESGGGLVQAGGSLRLSCAASGSIFSSYAMGWYRQAPGKERELVAVITSGDSTNYADSVKGRFTISRDNAKNTVYLQMNSLKPEDTAVYYCAAGTQAHAYVVRPIEMDYWGQGTQVTVSS | low polyreactivity
37 | HVQLVESVGGLVQAGGSLRLSCAASGSTFFYNAMAWYRQAPGKERELVAAITVTGNSTYYADSVKGRFTISRDNAKNTVYLQMNSLKPEDTAVYYCNTSLKRRRLRFNYWGQGTQVTVSS | low polyreactivity
38 | LVHLQESGGGLVLAGGGLRLSCAASGNIFTYVIMGWYRQPAGKERELVAAITYGTITNYADSVKGPFTISRDNAKNTVYLQMNCLKPEDTAVYHCAVQSTRIVPRHYYCGQGTQVTVSS | high polyreactivity
39 | QVQLVESGGGIFQAGGSLRLSCSASGNTLVIYAMGWYRQAPVKESELVAAISRAGGTTYYADSVKGRFTISRDKAKNTVYLQMNSLKPEDTEVFYCNAGDHMRKRYGISATWGYGYGYWGQGSQVTVSS | high polyreactivity
40 | QVQLVESGGGLVQAGGSLRLSCAASGSIFKFYTMGWYRQAPGKERELVAAISSSDGSTHYADSVKGRFTISRDNAKNTVYLQMNSLKPEDTAVYYCARRRYSRYSVTRGNYWGQGTQVTVSS | high polyreactivity
41 | QVQLVESGGGLVQAGGSLRLSCAASGSTLVRYAMGWYRQAPGKEREFVAAISWTGGSTYYADSVKGRFTISRDYAKNTVYLQMNSLKPEDTAVYYCSAEYFRGPSYSYWGQGTQVTVSS | high polyreactivity
42 | QVQLVESGGGLVQAGGSLRLSCAASGRTFYYYAMGWYRQAPGKEREFVAAISWSGVRTSYADSVKGRFTISRDNAKNTVNLQMNSLKPEDTAVYYCATKPNPQSRPRYDHWGQGTQVTVSS | high polyreactivity
43 | QVQLVESGGGLVQAGGSLRLSCAASGFTFRKYAMGWYRQAPGKERELVASITSGGSTYYADSVKGRFTISRDNAKNTVYLQMNSLKPEDTAVYYCNAVKATLASGRLRGAYYYWGQGTQVTVSS | high polyreactivity
